Source: patent publication CN114685674A

Target: VEGF165 (UniProt P15692)
Experiment: cell-based or functional assay

Sequence of UniProt P15692 (P15692 other isoform, or with tags, fused parts or gaps): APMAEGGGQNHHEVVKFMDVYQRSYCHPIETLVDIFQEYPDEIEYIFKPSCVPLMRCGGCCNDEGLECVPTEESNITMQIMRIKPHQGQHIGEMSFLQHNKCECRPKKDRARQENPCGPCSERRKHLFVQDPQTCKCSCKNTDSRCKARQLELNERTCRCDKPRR

HUVEC细胞增殖抑制 EC50: 0.221 nM
Substance: Conbercept(康柏西普) (Fc fusion)
